From PMC4421837
Where “and” joins values, the source holds several entries; their conditions need not be identical. Identical values can stand only once.

Key:
[1] = biological target: K18 tau construct (K18-C291A/C322A/I260C), labelled with AlexaFluor-488 or AlexaFluor-647; experiment: FRET or BRET; single-molecule FRET of species released from washed A488/A647-K18 filaments: pellet washed four times, fresh 50 mM ammonium acetate pH 7.0 added; aliquots diluted into the same buffer and measured on BSA-treated slides, no flow
[2] = biological target: K18 tau construct (K18-C291A/C322A/I260C), labelled with AlexaFluor-488 or AlexaFluor-647; experiment: FRET or BRET; single-molecule FRET of oligomers during aggregation: equimolar A488- and A647-labelled construct, 10 uM in all, 50 mM ammonium acetate pH 7.0, 37 °C, undisturbed, heparin (MW 3000) at 1:4 molar ratio; aliquots diluted 50,000-fold into the same buffer with 0.1 mg/ml BSA and 2.5 uM heparin, measured under flow in a microfluidic channel; bursts in the acceptor channel counted as oligomers
[3] = biological target: K18-P301L, labelled with AlexaFluor-488 or AlexaFluor-647; experiment: as above
[4] = biological target: K18-ΔK280, labelled with AlexaFluor-488 or AlexaFluor-647; experiment: as above

Substance: K18 tau construct (K18-C291A/C322A/I260C), labelled with AlexaFluor-488 or AlexaFluor-647 (domain or fragment)
- percent of soluble tau that is oligomeric (immediately after dilution of filaments) [1]: 0.6 to 3%
- oligomer concentration (typical) [2]: 5 nM
- percent of detected soluble species that are oligomers (after 0.5 h) [2]: 0.1%

Substance: K18-P301L, labelled with AlexaFluor-488 or AlexaFluor-647 (domain or fragment)
- peak oligomer concentration relative to K18-wt [3]: 4 fold and 3 fold

Substance: K18-ΔK280, labelled with AlexaFluor-488 or AlexaFluor-647 (domain or fragment)
- fold more oligomers at peak than for K18 [4]: 50 fold
- percent of detected species that are oligomers (at peak, 0.5 h) [4]: 4%
